Reference: patent US20240019424A1

Legend:
[1] = target: biotinylated single chain human FcRn (beta-2-microglobulin-human FcRn fusion polypeptide with (GGGGS)4-peptidic linker and C-terminal His(10)-Avi-tag) (human) (UniProt P61769); assay: SPR, C1 chip, scFcRn about 80 RU, Interaction Map spot; 150 mM NaCl; intramolecular binding 1+2
[2] = target: biotinylated single chain human FcRn (beta-2-microglobulin-human FcRn fusion polypeptide with (GGGGS)4-peptidic linker and C-terminal His(10)-Avi-tag) (human) (UniProt P61769); assay: SPR, C1 chip, scFcRn about 80 RU, Interaction Map spot; 400 mM NaCl; intramolecular binding 1+2
[3] = target: biotinylated single chain human FcRn (beta-2-microglobulin-human FcRn fusion polypeptide with (GGGGS)4-peptidic linker and C-terminal His(10)-Avi-tag) (human) (UniProt P61769); assay: SPR, C1 chip, scFcRn about 80 RU, Interaction Map spot; 150 mM NaCl; intermolecular binding 1+1′
[4] = target: biotinylated single chain human FcRn (beta-2-microglobulin-human FcRn fusion polypeptide with (GGGGS)4-peptidic linker and C-terminal His(10)-Avi-tag) (human) (UniProt P61769); assay: SPR, C1 chip, scFcRn about 80 RU, Interaction Map spot; 150 mM NaCl; intermolecular binding 1+2′
[5] = target: biotinylated single chain human FcRn (beta-2-microglobulin-human FcRn fusion polypeptide with (GGGGS)4-peptidic linker and C-terminal His(10)-Avi-tag) (human) (UniProt P61769); assay: SPR, C1 chip, scFcRn about 80 RU, Interaction Map spot; 400 mM NaCl; intermolecular binding 1+1′
[6] = target: biotinylated single chain human FcRn (beta-2-microglobulin-human FcRn fusion polypeptide with (GGGGS)4-peptidic linker and C-terminal His(10)-Avi-tag) (human) (UniProt P61769); assay: SPR, C1 chip, scFcRn about 80 RU, Interaction Map spot; 150 mM NaCl; intramolecular binding 1+2+1+2
[7] = target: biotinylated single chain human FcRn (beta-2-microglobulin-human FcRn fusion polypeptide with (GGGGS)4-peptidic linker and C-terminal His(10)-Avi-tag) (human) (UniProt P61769); assay: SPR, C1 chip, scFcRn about 80 RU, Interaction Map spot; 400 mM NaCl; intramolecular binding 1+2+1+2
[8] = target: biotinylated single chain human FcRn (beta-2-microglobulin-human FcRn fusion polypeptide with (GGGGS)4-peptidic linker and C-terminal His(10)-Avi-tag) (human) (UniProt P61769); assay: SPR, C1 chip, scFcRn about 80 RU, Interaction Map spot; 400 mM NaCl; intermolecular
[9] = target: biotinylated single chain human FcRn (beta-2-microglobulin-human FcRn fusion polypeptide with (GGGGS)4-peptidic linker and C-terminal His(10)-Avi-tag) (human) (UniProt P61769); assay: SPR, C1 chip, scFcRn about 80 RU, Interaction Map spot; 400 mM NaCl; intramolecular
[10] = target: biotinylated single chain human FcRn (beta-2-microglobulin-human FcRn fusion polypeptide with (GGGGS)4-peptidic linker and C-terminal His(10)-Avi-tag) (human) (UniProt P61769); assay: SPR, C1 chip, scFcRn amine-coupled about 80 RU, antibody as analyte, Interaction Map spot; 150 mM NaCl; intermolecular (FIG. 16 spot 2)
[11] = target: biotinylated single chain human FcRn (beta-2-microglobulin-human FcRn fusion polypeptide with (GGGGS)4-peptidic linker and C-terminal His(10)-Avi-tag) (human) (UniProt P61769); assay: SPR, C1 chip, scFcRn amine-coupled about 80 RU, antibody as analyte, Interaction Map spot; 150 mM NaCl; intramolecular (FIG. 16 spot 1)
[12] = target: biotinylated single chain human FcRn (beta-2-microglobulin-human FcRn fusion polypeptide with (GGGGS)4-peptidic linker and C-terminal His(10)-Avi-tag) (human) (UniProt P61769); assay: SPR, scFcRn on C1 chip, Interaction Map spot; 400 mM NaCl; intramolecular
[13] = target: biotinylated single chain human FcRn (beta-2-microglobulin-human FcRn fusion polypeptide with (GGGGS)4-peptidic linker and C-terminal His(10)-Avi-tag) (human) (UniProt P61769); assay: SPR, scFcRn on C1 chip, Interaction Map spot; 150 mM NaCl; intermolecular (FIG. 16 spot 2)
[14] = target: biotinylated single chain human FcRn (beta-2-microglobulin-human FcRn fusion polypeptide with (GGGGS)4-peptidic linker and C-terminal His(10)-Avi-tag) (human) (UniProt P61769); assay: SPR, scFcRn on C1 chip, Interaction Map spot; 150 mM NaCl; intramolecular (FIG. 16 spot 1)
[15] = target: biotinylated single chain human FcRn (beta-2-microglobulin-human FcRn fusion polypeptide with (GGGGS)4-peptidic linker and C-terminal His(10)-Avi-tag) (human) (UniProt P61769); assay: SPR, scFcRn on C1 chip, Interaction Map spot; 400 mM NaCl; intermolecular, first of two spots
[16] = target: biotinylated single chain human FcRn (beta-2-microglobulin-human FcRn fusion polypeptide with (GGGGS)4-peptidic linker and C-terminal His(10)-Avi-tag) (human) (UniProt P61769); assay: SPR, scFcRn on C1 chip, Interaction Map spot; 400 mM NaCl; intermolecular, second of two spots
[17] = target: biotinylated single chain human FcRn (beta-2-microglobulin-human FcRn fusion polypeptide with (GGGGS)4-peptidic linker and C-terminal His(10)-Avi-tag) (human) (UniProt P61769); assay: SPR, C1 chip, scFcRn about 80 RU, Interaction Map spot; 400 mM NaCl; intermolecular binding 1+2′
[18] = target: biotinylated single chain human FcRn (beta-2-microglobulin-human FcRn fusion polypeptide with (GGGGS)4-peptidic linker and C-terminal His(10)-Avi-tag) (human) (UniProt P61769); assay: SPR, C1 chip, scFcRn about 80 RU, Interaction Map spot; 400 mM NaCl and 20% (w/w) ethylene glycol; intramolecular binding 1+2
[19] = target: biotinylated single chain human FcRn (beta-2-microglobulin-human FcRn fusion polypeptide with (GGGGS)4-peptidic linker and C-terminal His(10)-Avi-tag) (human) (UniProt P61769); assay: SPR, C1 chip, scFcRn about 80 RU, Interaction Map spot; 400 mM NaCl and 20% (w/w) ethylene glycol; intermolecular binding 1+1′
[20] = target: biotinylated single chain human FcRn (beta-2-microglobulin-human FcRn fusion polypeptide with (GGGGS)4-peptidic linker and C-terminal His(10)-Avi-tag) (human) (UniProt P61769); assay: SPR, scFcRn on C1 chip, Interaction Map spot; 400 mM NaCl; intermolecular

biotinylated single chain human FcRn (beta-2-microglobulin-human FcRn fusion polypeptide with (GGGGS)4-peptidic linker and C-terminal His(10)-Avi-tag) (human), sequence (P61769 other isoform, or with tags, fused parts or gaps limits assumed): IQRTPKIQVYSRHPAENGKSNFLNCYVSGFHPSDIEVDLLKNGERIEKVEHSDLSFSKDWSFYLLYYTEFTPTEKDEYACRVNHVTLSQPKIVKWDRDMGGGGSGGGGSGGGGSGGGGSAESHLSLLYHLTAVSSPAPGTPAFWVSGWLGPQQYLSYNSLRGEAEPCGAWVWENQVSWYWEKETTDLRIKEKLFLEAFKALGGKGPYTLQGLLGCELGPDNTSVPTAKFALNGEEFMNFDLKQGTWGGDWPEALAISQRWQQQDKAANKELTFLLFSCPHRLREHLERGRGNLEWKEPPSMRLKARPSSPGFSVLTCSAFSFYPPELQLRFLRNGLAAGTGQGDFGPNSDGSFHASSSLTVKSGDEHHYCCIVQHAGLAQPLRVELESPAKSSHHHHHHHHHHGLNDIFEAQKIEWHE

Kd [1] [nM] | Kd [2] [nM] | Kd [3] [nM] | Kd [4] [nM] | Kd [5] [nM] | Kd [6] [nM] | Kd [7] [nM] | Kd [12] [nM] | Kd [13] [nM] | Kd [14] [nM] | Substance | other results
177 | 156 | 71 | 3 | 25 | 0.12 | 0.13 |  |  |  | anti-digoxygenin Fabs connected to an IgG1 Fc-region with the mutations T307H/N434H in both Fc-region polypeptides (from UniProt P01857 104-330) (antibody) | 
 |  |  |  |  |  |  |  |  |  | anti-digoxygenin-Fabs added to the Fc-region with a single FcRn binding site (mutations I253A/H310A/H435A in one Fc-region polypeptide and wild-type in the respective other Fc-region polypeptide) (from UniProt P01857 104-330; P01857 104-330) (antibody) | Kd [8]: 60 nM; Kd [9]: 1060 nM; Kd [10]: 20.5 nM; Kd [11]: 1250 nM
 |  |  |  |  |  |  | 325 | 10.4 | 391 | asymmetric antibody with the mutations I253A/H310A/H435A in one Fc-region polypeptide and the mutations T307H/N434H in the respective other Fc-region polypeptide (from UniProt P01857 104-330; P01857 104-330) | Kd [15]: 4.3 nM; Kd [16]: 39 nM
382 | 840 | 126 | 5.7 | 100 | 0.16 | 0.33 |  |  |  | anti-digoxygenin Fabs connected to a wild-type IgG1 Fc-region (from UniProt P01857 104-330) (antibody) | Kd [17]: 4.8 nM; Kd [18]: 1140 nM; Kd [19]: 75 nM
 |  |  |  |  |  |  | 166 | 4.7 | 184 | asymmetric antibody with the mutations I253A/H310A/H435A in one Fc-region polypeptide and the mutations M252Y/S254T/T256E in the respective other Fc-region polypeptide (from UniProt P01857 104-330; P01857 104-330) | Kd [20]: 6.2 nM
92 | 92 |  |  |  |  | 1.6 |  |  |  | anti-digoxygenin Fabs connected to an IgG1 Fc-region with the mutations M252Y/S254T/T256E in both Fc-region polypeptides (from UniProt P01857 104-330) (antibody) | 
